The target in the assay is Insulin (Sigma-Aldrich, 19278) (Homo sapiens (Human)) (UniProt P01308). The assay can be described thus: NS-ELISA, plate coated with insulin, antibody at 100 nM. On the technique in general: In an ELISA, binding on a coated surface is turned into a signal by an enzyme label.
Insulin (Sigma-Aldrich, 19278) (Homo sapiens (Human)), sequence (P01308 25-54 limits assumed, chain 1 of 2): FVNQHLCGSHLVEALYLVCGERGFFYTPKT
Insulin (Sigma-Aldrich, 19278) (Homo sapiens (Human)), sequence (P01308 90-110 limits assumed, chain 2 of 2): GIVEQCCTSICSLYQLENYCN

B1: v37575 (codrituzumab) (antibody, human IgG1, kappa, V domains shown)
VH: QVQLVQSGAEVKKPGASVKVSCKASGYTFTDYEMHWVRQAPGQGLEWMGALDPKTGDTAYSQKFKGRVTLTADKSTSTAYMELSSLTSEDTAVYYCTRFYSYTYWGQGTLVTVSS
VL: DVVMTQSPLSLPVTPGEPASISCRSSQSLVHSNRNTYLHWYLQKPGQSPQLLIYKVSNRFSGVPDRFSGSGSGTDFTLKISRVEAEDVGVYYCSQNTHVPPTFGQGTKLEIKR
For B1, the NS-ELISA binding score (ratio to buffer well) stood at 0.83.

B2: v36180 (M3-H1L1) (antibody, human IgG1, kappa, V domains shown)
VH: EVQLVQSGAEVKKPGSSVKVSCKASGYTFTDYEMHWVRQAPGQGLEWIGAIDPETGDTAYNQKFKGRATLTADKSTSTAYMELSSLRSEDTAVYYCTRYFSFAYWGQGTLVTVSS
VL: DVQMTQSPSSVSASVGDRVTITCRSSQSLRHSNGNTYLQWYQQKPGKAPKLLIYKVSNRFSGVPSRFSGSGSGTDFTLTISSLQPEDFATYFCYQSKHVPYTFGQGTKVEIKR
On to B2, for which the NS-ELISA binding score (ratio to buffer well) is 1.78.

Source of the values: patent US20250295799A1, “ANTIBODY-DRUG CONJUGATES TARGETING GLYPICAN-3 AND METHODS OF USE” (Zymeworks BC Inc., priority 2022, published 2025).
